Laboratory results reported in article PMC9850916.

Target: mutant human FcγRIIIa (V158) ectodomain (amino acid residues 1–175) with nine amino acid mutations a (human)
Assay: SPR

Kd: 1550 nM
koff: 0.062 s⁻¹
kon: 40000 M⁻¹ s⁻¹
Substance: Expi293-derived adalimumab (antibody)
